In assay [1] the target is T1, TAZ1 domain of CREB-binding protein (CBP), mouse CBP residues 340 to 439 (mouse, UniProt P45481 340-439). The assay is described as follows: fluorescence polarisation. A general note: In fluorescence polarisation assays a small probe gives low polarisation when free and higher when bound to something large.
The target in assay [2] is T1, TAZ1 domain of CREB-binding protein …. The assay is described as follows: fluorescence polarisation. The source holds these as a separate data set.
The target is the same in assay [3]. The assay is described as follows: NMR titration.
Assay [4] has as its target preformed complex of 15N-TAZ1 and HIF-1α (mouse | human, UniProt P45481 340-439; Q16665 776-826). The assay is described as follows: NMR titration.
Assay [5] deals with T1, TAZ1 domain of CREB-binding protein …. The assay is described as follows: fluorescence polarisation. The source holds these as a separate data set.

No end group written: not given here. Alexa594 = Alexa594 fluorescent dye

T1 sequence (P45481 340-439): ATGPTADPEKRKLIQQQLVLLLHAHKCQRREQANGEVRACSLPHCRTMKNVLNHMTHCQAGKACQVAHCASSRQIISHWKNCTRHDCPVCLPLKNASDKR
Sequence of preformed complex of 15N-TAZ1 and HIF-1α (P45481 340-439, one chain of several): as the sequence (P45481 340-439) above

B1: Alexa594-labeled CITED 216-269 peptide (labelled at C261) (peptide)
chain: GSHMSNVIDTDFIDEEVLMSLVIEMGLDRIKELPELWLGQNEFDFMTDFVC(Alexa594)KQQPSRVS
Take B1: the binding result in assay [1] is reported as “binds”.

B2: Alexa594-labeled CITED APAA peptide (labelled at C261) (peptide)
chain: GSHMSNVIDTDFIDEEVLMSLVIEMGLDRIKEAPAAWLGQNEFDFMTDFVC(Alexa594)KQQPSRVS
Consider B2, for which the binding result in assay [2] was “binds”.

B3: CITED APAA peptide (CITED2 216-269 with the nonproline residues of the LPEL motif mutated to alanine) (peptide)
chain: GSHMSNVIDTDFIDEEVLMSLVIEMGLDRIKEAPAAWLGQNEFDFMTDFVCKQQPSRVS
With B3, the binding result in assay [3] and in assay [4] was “binds” in each case.

B4: Alexa594-labeled HIF-1α peptide (C800V, labelled at C780) (peptide)
chain: GSHMSDLAC(Alexa594)RLLGQSMDESGLPQLTSYDVEVNAPIQGSRNLLQGEELLRALDQVN
Take B4: the binding result in assay [5] is given as “binds”.

The record behind these values is publication PMC8784115 (Proceedings of the National Academy of Sciences of the …, 2022).
